From PMC6697736, “A novel thermostable D-amino acid oxidase of the thermophilic fungus Rasamsonia emersonii strain YA” (Scientific Reports, 2019)

Experiments:
[1] = target: T1, ReDAAO (Rasamsonia emersonii, UniProt A0A499UB99); assay: DNPH assay, […] D-Val as substrate; type: biochemical; settings: read-out: % inhibition at 50 mM
T1 construct: gene DAO1; full-length, 368 aa, codon-optimised synthetic ORF in pET15b, His-tagged, E. coli BL21(DE3) pLysS; 42 kDa subunit, 185 kDa tetramer; noncovalent FAD

[2] = target: T1, ReDAAO; assay: absorption spectrum; TLC of flavin released by heat denaturation; type: binding; settings: noncovalent; co-purified from E. coli; pH 8.0
[3] = substrate: C[C@@H](N)C(=O)O; assay: purified protein; settings: apparent, 55 °C, 50 mM KPi pH 8.0, 0.02 mM FAD, O2 co-substrate
[4] = substrate: CC(C)[C@@H](N)C(=O)O; assay: purified protein; type: biochemical, Rasamsonia emersonii; settings: apparent, 55 °C, 50 mM KPi pH 8.0, 0.02 mM FAD, O2 co-substrate
[5] = substrate: CSCC[C@@H](N)C(=O)O; assay: purified protein; type: biochemical, Rasamsonia emersonii; settings: apparent, 55 °C, 50 mM KPi pH 8.0, 0.02 mM FAD, O2 co-substrate
[6] = substrate: N=C(N)NCCC[C@@H](N)C(=O)O; assay: purified protein; type: biochemical, Rasamsonia emersonii; settings: apparent, 55 °C, 50 mM KPi pH 8.0, 0.02 mM FAD, O2 co-substrate
[7] = substrate: N[C@H](CCC(=O)O)C(=O)O; assay: purified protein; type: biochemical, Rasamsonia emersonii; settings: apparent, 55 °C, 50 mM KPi pH 8.0, 0.02 mM FAD, O2 co-substrate

Question: Which inhibition at 50000 µM [1] does the source give for O=C(O)c1ccccc1 [benzoate] here?
Answer: 13.2%

Question: Which “absorption spectrum; TLC of flavin released by heat denaturation” value [2] does the source give for Cc1cc2nc3c(=O)[nH]c(=O)nc-3n(C[C@H](O)[C@H](O)[C@H](O)COP(=O)(O)OP(=O)(O)OC[C@H]3O[C@@H](n4cnc5c(N)ncnc54)[C@H](O)[C@@H]3O)c2cc1C [FAD] here?
Answer: ReDAAO contains noncovalently bound FAD that functions as a cofactor

Question: How did the inhibition at 50000 µM [1] turn out when O=C(O)C[C@@H](O)C(=O)O [D-malate] was run?
Answer: 17.2%

Question: With C/C=C/C(=O)O [crotonate] as the molecule, how does the inhibition at 50000 µM [1] read?
Answer: 22.6%

B1: ReDAAO (Rasamsonia emersonii) (protein)
chain: MATNNIVVLGAGVSGLTTAWLLSKDPSNKITVAAKHMPGDYDIEYCSPWAGANYLPVGAENSRVGQWERATWPHLRDIAQNHPEAGIHFQDTVVYNRTKDQGSTTGQWFSELVKPNPWYGKVLPNFRELSKDELPPGIDNANRFTSVCINTAVYLPWLVGQCRKNGVVFKRAVFKHVAEAANAHHSGQKADLVVNCTGLSSRKLGGVQDNTLLPARGQIVVVRNDPGLMCSISGTDDGDDEVTYMMTRAAGGGTILGGTYQKHNWDSLPDPNLAVRIMKRCIELCPSLVAPGQGIEGLDIIRHGVGLRPVREDGPRIEKELIDGVWVVHNYGHGGYGYQTSFGCATTAVEVVREALQQQKQRRDKARL
notes: full-length, 368 aa, codon-optimised synthetic ORF in pET15b, His-tagged, E. coli BL21(DE3) pLysS; 42 kDa subunit, 185 kDa tetramer; noncovalent FAD
Question: Which results are given for B1?
Answer: Km [3]: 2.7 ± 0.3 mM; kcat [3]: 189 s⁻¹; kcat/Km [3]: 69900 M⁻¹ s⁻¹; Km [4]: 0.628 ± 0.04 mM; kcat [4]: 225 ± 2.4 s⁻¹; kcat/Km [4]: 358000 M⁻¹ s⁻¹; Km [5]: 0.213 ± 0.03 mM; kcat [5]: 120 ± 3.1 s⁻¹; kcat/Km [5]: 562000 M⁻¹ s⁻¹; Km [6]: 19.2 ± 4.3 mM; kcat [6]: 45.6 ± 4.5 s⁻¹; kcat/Km [6]: 2380 M⁻¹ s⁻¹; Km [7]: 12.1 ± 2.9 mM; kcat [7]: 90.7 ± 6.6 s⁻¹; kcat/Km [7]: 7490 M⁻¹ s⁻¹
